Values of other authors, collected in PMC3702509, “Label Free Fragment Screening Using Surface Plasmon Resonance as a Tool for Fragment Finding – Analyzing Parkin, a Difficult CNS Target” (PLoS ONE, 2013).

Molecular target: UblD (Parkin ubiquitin-like domain) Ubl domain (Homo sapiens) (UniProt O60260)
Sequence (O60260 1-76): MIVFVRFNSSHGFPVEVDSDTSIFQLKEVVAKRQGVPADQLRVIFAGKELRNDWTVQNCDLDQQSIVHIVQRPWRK

Parkin (ΔUblD) ΔUblD, sequence (O60260 77-465, stated change not applied): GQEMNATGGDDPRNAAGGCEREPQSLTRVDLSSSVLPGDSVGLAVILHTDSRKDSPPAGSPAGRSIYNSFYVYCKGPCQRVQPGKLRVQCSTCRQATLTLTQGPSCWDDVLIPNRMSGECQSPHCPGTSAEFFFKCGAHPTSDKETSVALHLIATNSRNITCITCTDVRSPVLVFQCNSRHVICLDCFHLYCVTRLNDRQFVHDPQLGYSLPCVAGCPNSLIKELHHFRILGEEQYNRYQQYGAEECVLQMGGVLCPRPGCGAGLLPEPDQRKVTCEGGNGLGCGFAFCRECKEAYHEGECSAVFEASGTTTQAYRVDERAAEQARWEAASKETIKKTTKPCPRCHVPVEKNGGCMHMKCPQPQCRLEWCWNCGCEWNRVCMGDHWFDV

## Parkin (ΔUblD) ΔUblD (from UniProt O60260)
  Kd: 2.6 µM
